{"source": "paper PMC3511376", "target": "HIV-1 envelope glycoprotein gp120 (YU2) (HIV-1 (YU2)) (UniProt P35961)", "assay": "SPR; BIAcore 3000, CM4 chip; gp120YU2 amine-coupled (514 RU for the Lg-CRD chip, 838 RU for the Lg-ECD chip), BSA control flow cell; Langerin injected at 20 µl/min; running buffer 150 mM NaCl, 25 mM Tris pH 7.8, 4 mM CaCl2, 0.005% P20; regeneration with 50 mM EDTA; 1:1 Langmuir fit for Lg-CRD, EC50 from titration for Lg-ECD", "data": [{"substance": "Langerin carbohydrate-recognition domain (CRD) (domain or fragment)", "values": [{"measurement": "Kd", "value": 25, "unit": "µM"}]}]}
